Consider three proteins from patent publication US20190144917.

The target in data set [1] is T1, C1-NPs: fluorescein-conjugated MMP substrate peptide C1 (FAM-sk-PLGLEEA-GC) coupled to iron oxide nanoparticles (not fully specified).
T1 chain: SKPLGLEEAGC

In data set [2] the target is T2, alternate substrate/reporter peptide eGvndneeGffsarKsRLVGEGC veiled with DMNPE.
T2 chain: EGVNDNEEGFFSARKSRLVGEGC

Data set [3] concerns the target T3, alternate substrate/reporter peptide eGvndneeGffsarKsRLVGEGC (second substrate RLVGEGC), unmodified.
T3 chain: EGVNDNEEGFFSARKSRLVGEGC

Data set [4] deals with T4, S2: Biotin-CGPVPLSLVMK(Cy7)eGvndneeGffsar-NH2.
T4 chain: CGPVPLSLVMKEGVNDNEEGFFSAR

B1: recombinant MMP1 (protein)
chain: FVLTEGNPRWEQTHLTYRIENYTPDLPRADVDHAIEKAFQLWSNVTPLTFTKVSEGQADIMISFVRGDHRDNSPFDGPGGNLAHAFQPGPGIGGDAHFDEDERWTNNFREYNLHRVAAHELGHSLGLSHSTDIGALMYPSYTFSGDVQLAQDDIDGIQAIYGRSQNPVQ
With B1, the “proteolysis (fluorescence dequenching)” value in data set [1] is “significantly cleaved by MMP13, 7, 1, and 9”.

B2: plasmin (protein)
chain: KVYLSECKTGNGKNYRGTMSKTKNGITCQKWSSTSPHRPRFSPATHPSEGLEENYCRNPDNDPQGPWCYTTDPEKRYDYCDILECEEECMHCSGENYDGKISKTMSGLECQAWDSQSPHAHGYIPSKFPNKNLKKNYCRNPDRELRPWCFTTDPNKRWELCDIPRCTTPPPSSGPTYQCLKGTGENYRGNVAVTVSGHTCQHWSAQTPHTHNRTPENFPCKNLDENYCRNPDGKRAPWCHTTNSQVRWEYCKIPSCDSSPVSTEQLAPTAPPELTPVVQDCYHGDGQSYRGTSSTTTTGKKCQSWSSMTPHRHQKTPENYPNAGLTMNYCRNPDADKGPWCFTTDPSVRWEYCNLKKCSGTEASVVAPPPVVLLPDVETPSEEDCMFGNGKGYRGKRATTVTGTPCQDWAAQEPHRHSIFTPETNPRAGLEKNYCRNPDGDVGGPWCYTTNPRKLYDYCDVPQCAAPSFDCGKPQVEPKKCPGRVVGGCVAHPHSWPWQVSLRTRFGMHFCGGTLISPEWVLTAAHCLEKSPRPSSYKVILGAHQEVNLEPHVQEIEVSRLFLEPTRKDIALLKLSSPAVITDKVIPACLPSPNYVVADRTECFITGWGETQGTFGAGLLKEAQLPVIENKVCNRYEFLNGRVQSTELCAGHLAGGTDSCQGDSGGPLVCFEKDKYILQGVTSWGLGCARPNKPGVYVRVSRFVTWIEGVMRNN
As for B2, the proteolysis entry in data set [2] was “reduced proteolysis by plasmin, which was recovered by UV exposure”; in data set [3] it was “proteolysis by plasmin”.

B3: recombinant MMP7 (protein)
chain: YSLFPNSPKWTSKVVTYRIVSYTRDLPHITVDRLVSKALNMWGKEIPLHFRKVVWGTADIMIGFARGAHGDSYPFDGPGNTLAHAFAPGTGLGGDAHFDEDERWTDGSSLGINFLYAATHELGHSLGMGHSSDPNAVMYPTYGNGDPQNFKLSQDDIKGIQKLYGKRSNSRKK
For the protein B3, in data set [1], the “proteolysis (fluorescence dequenching)” value was “significantly cleaved by MMP13, 7, 1, and 9”. In data set [4], the “relative proteolysis (Cy7 signal after streptavidin depletion of uncleaved peptide)” value is “cleaved efficiently by MMP7 and MMP19”.
